# Laboratory results taken from publication PMC7835374 (Nature Communications, 2021).
# B1: 3I14 IgG1 (wild type) (antibody, V domains shown)
# VH: QVQLLESGGGVVQPGRSLRLSCAASGFTFSNYGMHWVRQAPGKGLEWVAIISFDGSKKYYANSVKGRSTISRDNSKNTLSLQMNSLGPEDTALYYCAKLPSPYYFDSRFVWVAASAFHFWGQGILVTVSS
# VL: NFMLTQPPSASGTPGQRVTISCSGSSSNIGGNTVHWFQQLPGTAPKLLIYTNSLRPSGVPDRFSGSKSGTSASLAISGLQSEDEADYYCAAWDDSLNGQVFGGGTKLTVL
# notes: copies: 2 + 2
# Molecular target: recombinant full-length hemagglutinin H6 (A/Taiwan/2/2013) (Influenza A virus A/Taiwan/2/2013 (H6N1), strain)
# Test: BLI
# Settings: both partners purified
binder,measurement,value
B1,Kd,2.9 nM
same,koff,0.000152 s⁻¹
same,kon,51900 M⁻¹ s⁻¹
